Reference: article PMC9900518

Target: GST-BRCA1-CT-M1775R (BRCT), human BRCA1 BRCT domain residues 1599-1863 (human) (UniProt P38398)
Experiment: pull-down; GST-tagged protein immobilised on glutathione-Sepharose beads; purified recombinant His-tagged protein; binding buffer 50 mM Tris-HCl pH 7.4, 100 mM NaCl, 0.4% Nonidet P-40, 10 mM MgCl2, 5 mM EDTA, 2 mM DTT; anti-His immunoblot

His-GIV-CT (aa 1660-1870) wild type (domain or fragment)
fold change of binding against GST-BRCA1 BRCT wild type: 3 to 5 fold
